In publication PMC4874009, “Super-resolution microscopy reveals structural diversity in molecular exchange among peptide amphiphile nanofibres” (Nature Communications, 2016):
The star is where a group is joined. Cy3 = disulfo-cyanine carboxylic acid dye; Cy5 = disulfo-cyanine carboxylic acid dye; Palmitoyl = CCCCCCCCCCCCCCCC(=O)*

T1: non-labelled peptide amphiphile (palmitic acid tail, six alanines, three glutamic acids)
T1 construct: designed peptide amphiphile, not a stretch of a natural protein; also called non-labelled PA; unlabelled PA; source: synthetic peptide (Fmoc solid-phase synthesis, purified by reversed-phase HPLC)
T1 peptide: Palmitoyl-AAAAAAEEE-NH2

B1: peptide amphiphile labelled with the sulfonated cyanine dye Cy5 (peptide)
peptide: Palmitoyl-AAAAAAEEEK(Cy5)-NH2
notes: designed peptide amphiphile; Made on MBHA rink amide resin, so the C-terminus is probably an amide (surmised); also called Cy5-PA; PA-Cy5; source: synthetic peptide (Fmoc solid-phase synthesis, purified by reversed-phase HPLC)
B2: peptide amphiphile labelled with the sulfonated cyanine dye Cy3 (peptide)
peptide: Palmitoyl-AAAAAAEEEK(Cy3)-NH2
notes: designed peptide amphiphile; Made on MBHA rink amide resin, so the C-terminus is probably an amide (surmised); also called Cy3-PA; PA-Cy3; source: synthetic peptide (Fmoc solid-phase synthesis, purified by reversed-phase HPLC)

Legend:
[1] = biological target: T1, non-labelled peptide amphiphile …; assay: FRET or BRET; nanofibres co-assembled from non-labelled PA with Cy3-PA (1 mol%) and Cy5-PA (0, 0.1, 0.2 and 0.5 mol%); 10 mM HEPES pH 7.5, NaCl 150 mM, final PA concentration 0.5 mM; emission spectra at the Cy3 excitation wavelength 520 nm; details: both partners purified
[2] = biological target: B2; assay: as above; details: both partners purified

Binder	binding result [1]	binding result [2]
B1	binds	binds
B2	binds	–
